Values quoted from earlier work, collected in patent US20130337579.

Target: CRP (cited studies) (Escherichia coli) (UniProt P0ACJ8)
Assay: EMSA
Settings: CITED Fried 1984

CRP (cited studies) (Escherichia coli), sequence (P0ACJ8 2-210): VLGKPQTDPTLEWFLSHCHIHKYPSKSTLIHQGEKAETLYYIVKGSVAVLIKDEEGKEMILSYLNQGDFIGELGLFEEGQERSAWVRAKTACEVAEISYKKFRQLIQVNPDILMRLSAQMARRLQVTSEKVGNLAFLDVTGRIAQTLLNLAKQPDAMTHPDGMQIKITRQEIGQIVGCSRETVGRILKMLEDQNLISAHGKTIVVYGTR

## lac CRP oligo (Fried 1984)
200 nM cAMP
  Kd: 63 nM
5 uM cAMP
  Kd: 0.84 nM
